Reference: publication PMC6771872, “Fast‐acting insulin aspart in people with type 2 diabetes: Earlier onset and greater initial exposure and glucose‐lowering effect compared with insulin aspart” (Diabetes, Obesity & Metabolism, 2019)

Tests used:
Assay type in all cases: in vivo, human
[1] = Serum IAsp pharmacokinetics after single subcutaneous dose (IAsp-specific ELISA); settings: people with T2D, single s.c. 0.3 U/kg, 59 IAsp
Text: At the two dosing visits, participants received single dosing of 0.3 U/kg faster aspart (100 U/mL; Novo Nordisk, Bagsværd, Denmark) or IAsp (NovoRapid® 100 U/mL; Novo Nordisk) in a randomized sequence. Both trial products were provided in blinded PDS290 pen‐injector prefilled pens (Novo Nordisk) and administered subcutaneously in a lifted skin fold of the lower abdominal wall above the inguinal area. Use of current insulin was terminated in due time to allow washout before faster aspart and IAsp administration.
Blood sampling for pharmacokinetics was performed frequently from 2 minutes prior to dosing until 12 hours post‐dose (Table S2 in Appendix S1).
A validated IAsp‐specific enzyme‐linked immunosorbent assay with a lower limit of quantification (LLOQ) of 10 pmol/L was used to measure free serum IAsp concentrations following polyethylene glycol precipitation.
(§1) All pharmacokinetic and glucose infusion rate (GIR) endpoints to assess onset of exposure and glucose‐lowering effect, initial IAsp exposure and glucose‐lowering effect, offset of exposure and glucose‐lowering effect, and overall exposure and glucose‐lowering effect were defined and derived as previously described.5 In a blinded review of pharmacokinetic profiles, it was observed that selected profiles had pre‐dose values above the LLOQ and stayed above the LLOQ for the entire sampling period. It was therefore decided to baseline‐correct these profiles using a baseline value derived as the mean of all pre‐dose samples. After baseline correction, all pre‐dose values and negative values were set to zero. All pharmacokinetic endpoints for the baseline‐corrected profiles were derived in the same way as those for the non‐baseline‐corrected profiles.

[2] = tested on: people with type 2 diabetes; assay: Safety assessments (adverse events, hypoglycaemic episodes, injection site reactions); settings: single s.c. 0.3 U/kg
Text: Safety assessments included adverse events (AEs), hypoglycaemic episodes, injection site reactions, laboratory safety measures, physical examination, vital signs and ECG. AEs were defined as treatment‐emergent if they had onset within the period from time of trial product administration until 7 days later. Hypoglycaemic episodes were classified according to the American Diabetes Association12 and in addition defined as “confirmed” if documented by PG <3.1 mmol/L with or without symptoms consistent with hypoglycaemia. Hypoglycaemic episodes were defined as treatment‐emergent if they had onset between the time of trial product administration and the subsequent administration of any insulin; however, these should occur no longer than 16 hours after trial product administration.

[3] = tested on: people with type 2 diabetes; assay: Suppression of serum free fatty acid (FFA) concentration after dosing; settings: people with T2D, single s.c. 0.3 U/kg
Protocol: Serum free fatty acid (FFA) concentrations were measured using a Wako NEFA assay (Wako Diagnostics, Mountain View, California), performed on a Roche Cobas C501 analyser (Roche Diagnostics GmbH, Mannheim, Germany).
The suppression of serum FFA concentration initially after dosing was determined by calculating the area over the baseline‐corrected serum FFA concentration‐time curve during the first hour (ΔAOCFFA,0‐1 h) and the first 2 hours (ΔAOCFFA,0‐2 h) as well as the time to reach 50% of the maximum FFA decline in the initial part of the FFA profile (t50% max FFA decline). Furthermore, the minimum FFA concentration (FFAmin) was derived.
Statistical analyses were performed using SAS version 9.4 (SAS Institute, Cary, North Carolina). All endpoints were compared between faster aspart and IAsp using a linear mixed model, with treatment and period as fixed effects and participant as a random effect. The P value for the two‐sided test of no treatment difference using a significance level of 5% was estimated from the model. For FFA endpoints, baseline FFA was included as a covariate. […] Least squares means for each treatment, treatment ratios and 95% confidence intervals (CIs) were calculated on the original scale. All other endpoints were analysed on a linear scale: least squares means for each treatment, treatment differences and 95% CIs were estimated. Treatment ratios and 95% CIs were determined according to Fieller's method.14

[4] = tested on: people with type 2 diabetes; assay: Euglycaemic glucose clamp, glucose infusion rate (glucose-lowering effect); settings: people with T2D, single s.c. 0.3 U/kg, n = 56 faster aspart, 59 IAsp
Protocol: Participants arrived at the clinical site at 4:30 PM the day before dosing, were served a standardized meal and started fasting from 7:00 PM. In order to assess the pharmacodynamics of faster aspart and IAsp, a euglycaemic glucose clamp was conducted with an overnight run‐in period starting at 10:00 PM. Participants received a variable intravenous infusion of human insulin [40 IU Actrapid® 100 IU/mL (Novo Nordisk) in 99.6 mL saline] or 20% glucose to obtain the plasma glucose (PG) target concentration of 5.0 mmol/L. The trial product was administered between 8:00 AM and 10:00 AM the next morning after PG had stabilized for ≥1 hour with minimum insulin infusion and no glucose infusion. At the time of dosing, any infusion of intravenous insulin was terminated. After PG had declined by 0.3 mmol/L (defined as onset of action), a variable intravenous glucose infusion was initiated to keep PG at the target throughout the clamp. The clamp continued for up to 12 hours after dosing, but was terminated if PG was consistently ≥11.1 mmol/L, with no requirement for intravenous glucose infusion during the previous 30 minutes. The individual clamps were performed with similar high quality across both treatments (Figure S1 and Table S1 in Appendix S1).11
Measurement of PG concentrations during the glucose clamp was performed with a SuperGL 2 glucose analyser (Dr Müller Gerätebau GmbH, Freital, Germany) using an electrochemical method.
as §1

[5] = LS mean ± SE, n = 56 faster aspart, 58 IAsp
[6] = euglycaemic clamp, LS mean ± SE

For insulin aspart [IAsp], the “tLate 50% Cmax (time to 50% of maximum IAsp concentration in the late part of the PK profile)” value ([1]; offset of exposure, LS mean, n = 56 faster aspart) was 237.8 min, the Onset of appearance ([1]; free serum IAsp by ELISA, LS mean ± SE, n = 56 faster aspart) was 4.4 ± 0.3 min and the “AUCIAsp,0-t (total IAsp exposure)” value ([1]; sampling until 12 hours, LS mean, n = 56 faster aspart) was 1.403 nM·h. For the same substance, the “tmax (time to maximum IAsp concentration)” value ([1]; LS mean ± SE, n = 55 faster aspart) was 1.45 ± 0.0867 h, the “tEarly 50% Cmax (time to 50% of maximum IAsp concentration in the initial part of the PK profile)” value ([1]; LS mean ± SE, n = 56 faster aspart) was 27.9 ± 1.0 min and the “AUCIAsp,0-15min LS Mean” value ([1]; LS mean, n = 56 faster aspart) was 0.0074 nM·h. For the same substance, the “AUCIAsp,0-1h LS Mean” value ([1]; LS mean, n = 56 faster aspart) was 0.189 nM·h, the “AUCIAsp,0-1.5h LS Mean” value ([1]; LS mean, n = 56 faster aspart) was 0.355 nM·h and the “AUCIAsp,0-2h LS Mean” value ([1]; LS mean, n = 56 faster aspart) was 0.516 nM·h. The “AUCIAsp,2-t (partial area under the serum IAsp profile from 2 hours)” value ([1]; LS mean, n = 56 faster aspart) was 0.841 nM·h, the “Cmax (maximum IAsp concentration)” value ([1]; LS mean, n = 56 faster aspart) was 0.384 nM and the “AUCIAsp,0-30min LS Mean” value ([1]; primary endpoint, LS mean, n = 56 faster aspart) was 0.042 nM·h. For the same substance, the “Injection site reactions or treatment-emergent hypoglycaemic episodes” value ([2]; people with T2D) was “no injection site reactions or treatment‐emergent hypoglycaemic episodes were reported”, the Tolerability ([2]; people with T2D) was “well tolerated” and the “Number of treatment-emergent AEs” value ([2]; safety analysis set 61 participants with T2D, onset within 7 days of dosing) was 11. The “t50% max FFA decline (time to reach 50% of the maximum decline in FFA)” value [3, 5] was 50.0 ± 2.3 min, the “ΔAOCFFA,0-1 h (area over the baseline-corrected FFA curve, first hour)” value [3, 5] was 0.09 ± 0.01 mmol·h/L and the “ΔAOCFFA,0-2 h (area over the baseline-corrected FFA curve, first 2 hours)” value [3, 5] was 0.38 ± 0.02 mmol·h/L. The “Mean minimum FFA concentration (FFAmin)” value ([3]; mean ± spread as printed) was 0.08 ± 0.05 mmol/L, the “tLate 50% GIRmax (time to 50% of maximum GIR in the late part of the GIR profile)” value ([4]; offset of glucose-lowering effect, LS mean) was 297.7 min and the “AUCGIR,0-t (total glucose-lowering effect)” value ([4]; clamp up to 12 hours, LS mean) was 904 mg/kg. The “Onset of action (PG decline by 0.3 mmol/L)” value ([4]; euglycaemic clamp target 5.0 mmol/L, LS mean ± SE) was 31.3 ± 1.4 min, the “tEarly 50% GIRmax (time to 50% of maximum GIR in the initial part of the GIR profile)” value [4, 6] was 51.1 ± 2.3 min and the “tGIRmax (time to maximum glucose infusion rate)” value [4, 6] was 155.6 ± 8.7 min. The “AUCGIR,0-30min LS Mean” value ([4]; euglycaemic clamp, LS mean) was 7.0 mg/kg, the “AUCGIR,0-1h LS Mean” value ([4]; euglycaemic clamp, LS mean) was 67 mg/kg and the “AUCGIR,0-1.5h LS Mean” value ([4]; euglycaemic clamp, LS mean) was 127 mg/kg. For the same substance, the “AUCGIR,0-2h LS Mean” value ([4]; euglycaemic clamp, LS mean) was 210 mg/kg, the “AUCGIR,2-t (partial area under the GIR profile from 2 hours)” value ([4]; LS mean) was 681 mg/kg and the “GIRmax (maximum glucose infusion rate)” value ([4]; LS mean) was 3.9 mg/kg/min.
